Among the data in patent publication US20230303666A1 are IC50 of pseudovirus neutralization values, retold here.

In this experiment the target is SARS-CoV-2 S on pseudotyped lentivirus (pCMV-SARS2deltaC-gp41) (SARS-CoV-2) (UniProt P0DTC2). Description: cell-based or functional assay.

With Nb21.t (VHH), the IC50 of pseudovirus neutralization came out at 0.244 nM.
